Results: a protein production outcome set (Wang et al. 2014)

Test: label from the status in PepcDB records

For “MTELVQQLALLDALLSNWDGVLVRMGAPDVLRDEALAALAVKLSSAESPDDLDLLLDDLFDLVEDTPAYDYVRGLIARARLDTGTVAKTRGGYAGELVSDDEKSLLFGASRLAGRALGNAVSADVEPCQVEVFFATNRKSSDASDLQFTGEHDAGGYTCGVAHVTIPVGVHRAGVLEGKRWWHLLREKDDSRRYVVLGSVEKLAEDLFTTRIVEGAPECRDLLVFLHGFNVTFEDAARQAAQFAFDLQFQGRVVLYSWPSLGSLAGYCADEERAFLSNGRFAGFLGMLEDGPWDKVHILAHSMGNRVMLYGLSGNSWPNGRISQVVFAAADVYVETFRELFPKIREKAALYTSYTSKKDRALLISGILHKAKRIGISRGEPFVMDGLETIDASKVDNGFPGHGYFAEETKLIEDISQLLGKGLSAGRRKLYQPPSKAYWDFR”, the protein production was “failed”.

In the case of “MKGRIELGDVTPHNIKQLKRLNQVIFPVSYNDKFYKDVLEVGELAKLAYFNDIAVGAVCCRVDHSQNQKRLYIMTLGCLAPYRRLGIGTKMLNHVLNICEKDGTFDNIYLHVQISNESAIDFYQKFGFEIIETKKNYYKRIEPADAHVLQKSLRSPCAPPAGELQKAD”, the protein production is reported as “failed”.

In the case of “MSVDAVEIETLRKTVEDYFCFCYGKALGKSTVVPVPYEKMLRDQSAVVVQGLPEGVAFKHPENYDLATLKWILENKAGISFIIKRPFLEPKKHVGG”, the protein production is reported as “not failed”.

In the case of “MVWPHLYFSELEAQHIMTSIISSSWFKFSVVAASITGIMMLSGCAKKEAQDLTTLNIGFQKYGLLPIVKERGELDKILKKEGITIKWVEFPAGPQLLEGLNVGSVVFGEAGEAPPIFAQAANSNLVYVANQPAAPNAEALIVQKNSSVHSVQDLKGKRIALNKGSNVHYLLLKLLEKNHLTLNDIQVVYLPPADARAAFEKGAVDAWVIWDPFFAAAEQQIGARVIATGQDLVSNHQFYLADRKFAQNHPEVLKTLVKELNQSTEWVKTHQDDAAKLLEKPTALDFNILKTSISRMGFGVTPLSNTVINEQQQVADAFYQQKLIPQPLKIQDAILKGEIK”, the protein production is reported as “failed”.

For “MEGFHMVSDMCPQITGWRIYVFVVRVFKNVISPNVFELGLILADYAGSNSRIEATVDRRLAPFYEDRFVENEWKTITSFLVRKATDSVRATKHEYGILFMDRTVVVEAPPRSPPVPDFDFTPFDYILEKSAYKNVLVDVVGALVDVGGLTTDYYGLKMSFKIKDRYNEVLECEARNKQAEYLDGYFKSLGKGNFVVALSFWRLTELSNPKLASHGAISKVVANPDIPEVADIAMVVF”, the protein production was “failed”.

With “MAEIKHYQFNVVMTCSGCSGAVNKVLTKLEPDVSKIDISLEKQLVDVYTTLPYDFILEKIKKTGKEVRSGKQLAREVILAVHGMTCSACTNTINTQLRALKGVTKCDISLVTNECQVTYDNEVTADSIKEIIEDCGFDCEILRDS” the protein production was “not failed”.

With “MHLRDRPGFGPGGPFRFRALPRAADKGTMMFKKILIANRGEIACRVIKTARKMGIQTVAVYSDADRNALHVSMADEAIHIGPPPANQSYIVIDKIMEAIKASGAEAVHPGYGFLSERMDFAAALEAAGVVFIGPPSGAIEAMGDKITSKKLAKEAGVSTVPGYMGLIADADEAVKISNEIGYPVMIKASAGGGGKGMRIAWSEAEVKEGFESSKNEAANSFGDDRIFIEKFVTQPRHIEIQVLADKHGNCVYLHERECSIQRRNQKVIEEAPSPFLDEATRKAMGEQACALAKAVGYASAGTVEFIVDGQKNFYFLEMNTRLQVEHPVTELITGIDLVEQMIRVAAGEKLPFQQSDLKINGWAMESRLYAEDPYRNFLPSIGRLTRYRPPVESVTPTSVVRNDTGVYEGGEISMYYDPMIAKLCTWAPTREAAIEEMRLALDTFEVEGIGHNLPFVGAVMDHPRFVKGDITTAFIAEEYPDGFQGAVLDEPTLRRVAAAAAAMNRVAEIRRTRISGTMNNHERHVGVDWVVALQGESYHVSIAADREGSTVSFSDGSSLRVTSDWTPGQPLASLMVDGRPLVMKVGKIPMGFRLRLRGADLKVNVRTPRQAELALLMPEKLPPDTSKYLLCPMPGLVVKINVAEGDEVQEGQALATVEAMKMENILRAERRGTVKKIAAAPGASLRVDDVIMEFE” the protein production was “failed”.

In the case of “MQEQRQQLLRSLEALIFSSEEPVNLQTLSQITAHKFTPSELQEAVDELNRDYEATGRTFRIHAIAGGYRFLTEPEFADLVRQLLAPVIQRRLSRSMLEVLAVVAWHQPVTKGEIQQIRGASPDYSIDRLLARGLIEVRGRADSPGRPLQYGTTEVFLDLFHLPSLKDLPKLREIKEILQEHEEQQYLAADGDLPVAADEDEKPRMERIE”, the protein production is reported as “not failed”.

With “MYNAQLGIGILKYVNTMTKYSALLVLFLFSMIANSINAQPFVALDNRNKIELNEHDLWFKTQSLDTNPSFLALSQLHQNANRVTSTFGGSGAYISKIKLTNTKGQKDTWFVNIHAVYLDIGTAYWQPEHGEPIVLESFGHMGSENPKLAHSQAFSLLLNQNESGTLWVYIQAKMFATPVVVELYSKKEFYKKQFITNSISTISFTVMMTLALIAFFIYLRTKYLVTLACTGYIGIQGLGWFTASGSFGHLLTVSAFNPVYSGIIIFPFAIASASQFTKLLFNCPQKHPKLTLTFNLLSIVCFSLGIIMPFIPFTQSFLISHIIATIWIPLCIGTGIFMLAKNDFRAKYYLIGNLVYGFTLAGYILSHLYKIDWNISLEVIVQIALTIDCMCILLSLSEWLQIQQKEFHRSYAISRIDPLTQIGNRFAQNEKLASLKGPYCITFIDLDGFKKINDKLGHEEGDKVLIATANIMQKKLQELGSIYRCGGDEFIWVVDIENVQQTEAIITKLSDLLLQTEKELQHRGWSEAGLSFGIATSFETLNQSECLSLADQRMYKYKQDKKSIKGLAACS” the protein production was “failed”.

With “MVKLIHTLADHGDDVNCCAFSFSLLATCSLDKTIRLYSLRDFTELPHSPLKFHTYAVHCCCFSPSGHILASCSTDGTTVLWNTENGQMLAVMEQPSGSPVRVCQFSPDSTCLASGAADGTVVLWNAQSYKLYRCGSVKDGSLAACAFSPNGSFFVTGSSCGDLTVWDDKMRCLHSEKAHDLGITCCDFSSQPVSDGEQGLQFFRLASCGQDCQVKIWIVSFTHILGFELKYKSTLSGHCAPVLACAFSHDGQMLVSGSVDKSVIVYDTNTENILHTLTQHTRYVTTCAFAPNTLLLATGSMDKTVNIWQFDLETLCQARSTEHQLKQFTEDWSEEDVSTWLCAQDLKDLVGIFKMNNIDGKELLNLTKESLADDLKIESLGLRSKVLRKIEELRTKVKSLSSGIPDEFICPITRELMKDPVIASDGYSYEKEAMENWISKKKRTSPMTNLVLPSAVLTPNRTLKMAINRWLETHQK” the protein production was “failed”.

In the case of “SSQPVISAQEQETQIVLYGKLVEARQKHANKMDVPPAILATNKILVDMAKMRPTTVENVKRIDGVSEGKAAMLAPLWEVIKHFCQTNSVQTDLFSSTKPQ”, the protein production is reported as “not failed”.

With “MATAASNHYSLLTSSASIVHAEPPGGMQQGAGGYREAQSLVQGDYGALQSNGHPLSHAHQWITALSHGGGGGGGGGGGGGGGGGGGGGDGSPWSTSPLGQPDIKPSVVVQQGGRGDELHGPGALQQQHQQQQQQQQQQQQQQQQQQQQQRPPHLVHHAANHHPGPGAWRSAAAAAHLPPSMGASNGGLLYSQPSFTVNGMLGAGGQSAGLHHHGLRDAHDEPHHADHHPHPHSHPHQQPPPPPPPQGPPGHPGAHHDPHSDEDTPTSDDLEQFAKQFKQRRIKLGFTQADVGLALGTLYGNVFSQTTICRFEALQLSFKNMCKLKPLLNKWLEEADSSSGSPTSIDKIAAQGRKRKKRTSIEVSVKGALESHFLKCPKPSAQEITSLADSLQLEKEVVRVWFCNRRQKEKRMTPPGGTLPGAEDVYGGSRDTPPHHGVQTPVQ” the protein production was “failed”.

In the case of “MFLNRKVELSLLENLHAEGKPKLILLYGKRRVGKTELLNEFARRHRALYLVARQEAYEGQLKKMSSEIAEFFDDDVLRHSPFQNYDALFIYLAQKETPVLFDEFPYLVEANRDLPSILQEYWDRYFSKKKTFLVLCGSSIAMMESLLGYKSPLYGRRTEQILLEPLKFREACEFFPQLEQEDKVLAYAVLGGTPAYLLEFDYGKPLLENIRDRILQKNTFLYQDTMFVLQQELTEPRVYYSIINSIAKGNTRLGEIMNDTGLEKSKITKYLSVLKDLHIIERRVPVTEKSPESSKKGIYLLKDNYFKFWFRFVFENAEYIEQGRQEKLIGDKISPVLNNFAGFAYEEIVLEYLKSSPGFPDYIFGRWWDKEEEIDVVGLDSSQNRIIFGEVKWKALTEKEARQTLNQLVEKSVEVKWGENLKSGEIQEGPEKKYMLVGKKVGGKKRLLGDGYLVLELDDLVEN”, the protein production is reported as “failed”.

With “MESITVTELKEKILDANPVNIVDVRTDQETAMGIIPGAETIPMNSIPDNLNYFNDNETYYIICKAGGRSAQVVQYLEQNGVNAVNVEGGMDEFGDEGLDIKSILEHHHHHH” the protein production was “not failed”.

For “MLHGFLRLAAGAGRSLAVPAILLALGAPAQAGSLLEDCANDKLTPPNRIVACTNVLEDKAASASDQAVAYFNRANALDRNGEFDRAIADYDKAIAFNPKDAEAFNNRGLIWGHKKDFDRALADYDKAIELNPQIAIAYANRGLIWNDIKHDYVKAIADFDKAIRLDPENNGLYNLRGNAYLRKGDYDQAITSYSQAIFLDSQDPNQYFNLGLAWTTKGNLERAIADYSQAISLDANHAEAYRWRADAWVKRGDTDQALSDYTEAIRLDPGDAETFRNRARIWERKRDYDRAIADYDQAIAFAPNDAVAYNGRGWMWSLKHETDRAIVDYVKATAFDPNYVLAYDNLGLAWWDKGDLDRAISAFDQAVIVDPKYAPAYNDRGLARMDKNQYDLAIADYNMAILIDAGFVSAYRNRGNAWNRKGQFDYAIADFDQAIDHDPDDADAYVGRGRSRIYKADYTKAIADLDQAIRIGPKSARAHDTRGLAMVYKADYAGALADYDEAIRLSPKNASAYRNRGIASFYFGPPAKAQADFEQAAAIKPGDSYHAIWLDLARRRNGQPSILVDAKLDMTRWPAAVVRLLLGQQTPEATLLAADNPDATKKSEQLCEANFYVAEFQRLQHHDEEALRLYRLALGGCPRDFIEYTAATSALRVMGKAP”, the protein production was “failed”.

In the case of “MLEIIQKTLTDNAIIGAIFSSIAIIFLGFYIRKRNILTGAASKILTKVVLTVAIPALAFTSFMKDINQKELHEGINILIWGFVIYILLIVLTKFIFARVKGDKQDVFRVLTIFGSTTFFGVPIVKAVYGSVGAMYSSIFNIAYRVFLYSYGYIKMSGVKMDKENLKKNLKEMLLNPVIIATFLGLFIWLFQGMLPQVQIGDKSYAFLRIDQTLPWLYKPLTYLDKLCSPLAWLAIGITLAEVPFKQAVGQKEPWVYSLIKIILVPVINLGLLVVLNKTGILPVSFEGMATTVIMLATPTATVAAAYAISFDKEALLTSNCSLLSTVVAVVAMPFWIVILQIIKNIGLFA”, the protein production is reported as “failed”.

With “TISSGVPPELPGPPTNLGISNIGPRSVTLQFRPGYDGKTSISRWLVEAQVGVVGEGEEWLLIHQLSNEPDARSMEVPDLNPFTCYSFRMRQVNIVGTSPPSQPSRKIQTLQ” the protein production was “not failed”.

For “MISILRRGLLVLLAALPLLANAASTPSAHDLVQDTTTRLLADLAANKEKYKQSPNDFYNALNSIVGPVVDADGISRSIMTVKYSRKATPEQMVRFQENFKRSLMQFYGNALLEYNNQGITVSPAKDESGTRTSVDMQVKGNNGAIYPVSYTLEKINDEWKVRNVIINGINIGKLFRDQFADAMQRNGNNLDKTIDGWAGEVAKAKEVTEDAAQKAAQLEHHHHHH”, the protein production was “not failed”.

With “PRLLCTATKQKNSGQNLEEDMGQSEQKADPPATEKTLLEEKVKLEEQLKETVEKYKRALADTENLRQRSQKLVEEAKLYGIQAFCKDLLEVADVLEKATQCVPKEEIKDDNPHLKNLYEGLVMTEVQIQKVFTKHGLLKLNPVGAKFDPYEHEALFHTPVEGKEPGTVALVSKVGYKLHGRTLRPALVGVVKEA” the protein production was “failed”.
